Test results from patent US20090074762A1 (PDL BIOPHARMA, published 2009).

T1: TweakR on cells (TweakR-expressing cells, TweakR transfectant cell line, A375 melanoma cells, tumor tissue) (human, UniProt Q9NP84 28-129)
T1 sequence: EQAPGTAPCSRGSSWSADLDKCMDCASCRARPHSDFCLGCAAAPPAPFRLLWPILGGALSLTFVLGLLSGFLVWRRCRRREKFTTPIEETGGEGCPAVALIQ

T2: mouse TweakR (mouse, UniProt Q9CR75 28-80, limits assumed)
T2 construct: also called mouse TweakR protein
T2 sequence (looked up): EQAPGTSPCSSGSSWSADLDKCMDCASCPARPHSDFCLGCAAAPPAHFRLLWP

T3: soluble form of the extracellular domain of human TweakR (human, UniProt Q9NP84 28-80)
T3 construct: also called soluble TweakR extracellular domain
T3 sequence: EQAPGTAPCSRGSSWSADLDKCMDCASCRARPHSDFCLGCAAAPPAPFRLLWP


Legend:
[1] = biological target: T1, TweakR on cells (TweakR-expressing …); test: cell-based or functional assay
mouse TweakR = biological target: T2, mouse TweakR; test: binding assay read as OD650, single bar per antibody and target; format and antibody concentration not given
human TweakR (R56P) = human TweakR (R56P) (human, UniProt Q9NP84 28-80, limits assumed); test: as above
[2] = biological target: T3, soluble form of the extracellular …; test: Biacore; antibody captured by immobilized anti-Fc, soluble TweakR extracellular domain injected
Protocol: The relative binding affinities of various mouse and humanized anti-TweakR antibodies were assessed in a Biacore assay using a soluble form of the extracellular domain of human TweakR. Briefly, goat anti-mouse Fc antibody or goat anti-human Fc was first immobilized to the biosensor surface followed by capture of antibody on the test surface. Subsequently, the soluble form of the extracellular domain of human TweakR was injected to measure binding to, and dissociation from, antibody.

Binder	agonist activity (IL-8 release assay) [1] [%]	binding result (mouse TweakR)	binding result (human TweakR (R56P))	Kd [2] [nM]
murine anti-TweakR antibody ITEM-1 (antibody, V domains shown) VH: EVKLEESGGGLVQPGGSMKLSCVASGFSFSNYWMNWVRQSPEKGLEWVAEIRLKSNNYATHYAESVKGRFTISRHDSKSSVYLQMNNLRAEDTGIYYCTRAYADYFDYWGQGTTLTVSS VL: DIVLTQSPASLVVSLGQRATISCRASQSVSTSTYSYMHWYQQKPGQPPKILIKYASNLESGVPARFSGSGSGTDFTLNIHPVEEEDTATYYCQHSWEIPYTFGGGTKLEIKR	~25			
murine anti-TweakR antibody ITEM-3 (antibody, V domains shown) VH: EVKLEESGGGLVQPGGSMKLSCVVSGLTFSRYWMSWVRQSPEKGLEWVAEIRVKSDNYATTHYAESVKGKFTVSRDDSKSRLYLQMSSLRPEDTGIYYCIGYYADAMDYWGQGTSVTVSS VL: DIVLTQSPASLVVSLGQRATISCRASQSVSTSSYSYMHWYQQKPGQPPKLLIKYASKLDSGVPARFSGSGSGTDFTLNIHPVEEEDTATYYCQHSWEIPWTFGGGTKMEIKR	~37			
murine anti-TweakR antibody 18.3.3 (antibody, V domains shown, Mouse monoclonal antibody) VH: EVKLGESGGGLVQPGGSMKLSCVASGFPFTKYWMNWVRQSPEKGLEWVAEIRLKSDNYATHYAESAKGRFTISRDDSRSSVYLQMNNLRAEDTAIYYCSPTYADTMDYWGQGTSVTVSS VL: DIVLTQSPASLAVSLGQRATISCKASQSVSTSTYSYMQWYQQRPGQSPKLLIKYASKLDSGVPARFSGSGSGTDFTLNIHPVEEEDTATYYCQHSWELPYTFGGGTRLEIKR	~14	binds	binds	0.23
murine anti-TweakR antibody 136.1 (antibody, V domains shown, Mouse monoclonal antibody) VH: EVKLEESGGGLVQPGGSMKLSCVASGFTFNNYWMSWVRQSPEKGLEWLAEIRLKSDNYATHYAESVKGKFTISRDDSKSRLYLQMNNLRAENTGIYYCTGGFADYFDYWGQGTTLTVSS VL: DIVLTQSPASLTVSLGQRATISCRASQSVSTSSYSYMQWYQQRPGQPPKLLIKYATNLDSGVPARFSGSGSGTDFTLNIHPVEEEDAATYYCQHSWEIPYTFGGGTKLEIKR	~278			0.68
humanized anti-TweakR antibody PDL192 (antibody, human IgG1, V domains shown) VH: EVQLVESGGGLVQPGGSLRLSCAASGFTFSSYWMSWVRQAPGKGLEWVAEIRLKSDNYATHYAESVKGRFTISRDDSKNSLYLQMNSLRAEDTAVYYCTGYYADAMDYWGQGTLVTVSS VL: DIQMTQSPSSLSASVGDRVTITCRASQSVSTSSYSYMHWYQQKPGKAPKLLIKYASNLESGVPSRFSGSGSGTDFTLTISSLQPEDFATYYCQHSWEIPYTFGGGTKVEIK	~25			
murine anti-TweakR antibody 19.2.1 (antibody, mouse IgG2a, V domains shown) VH: EVKLEESGGGLVQPGGSMKLSCVASGFTFSSYWMSWVRQSPEKGLEWVAEIRLKSDNYATHYAESVKGKFTISRDDSKSRLYLQMNSLRAEDTGIYYCTGYYADAMDYWGQGTSVTVSS VL: DIVLTQSPASLAVSLGQRATISCRASQSVSTSSYSYMHWYQQKPGQPPKLLIKYASNLESGVPARFSGSGSGTDFTLNIHPVEEEDTATYYCQHSWEIPYTFGGGTKLEIK	~39			7.12
humanized anti-TweakR antibody PDL400 (antibody, V domains shown, constant regions not expressly stated) VH: QVQLVQSGAEVKKPGASVKISCKVSGYTFTDFIIAWVKQAPGKGLEWIGEIYPGTGRTYYSEKFRGKATLTADKSTSTAYMELSSLRSEDTAVYYCARRTIYYDYDGDYWGQGTTVTVSS VL: DIVMTQSPLSLPVTPGEPASISCRSSKSLLHSNGITYLYWYLQKPGQSPQLLIYQMSNLASGVPDRFSSSGSGTDFTLKISRVEAEDVGVYYCAHNLELPWTFGGGTKVEIK	~8			0.58
